Values belong to the molecule of their own block, whether it stands above or below them.
What was measured:
[1] = μPET/μCT stability study of ^64Cu-labeled pTrMA-co-DOTA (fresh, plasma-incubated, free ^64CuCl2); assay type: in vivo, C57BL/6 mice; conditions: female mice, n = 4, i.v., fresh 200 μCi, plasma-incubated (37 °C, 24 h) 100 μCi, ^64CuCl2 100 μCi, mean ± SEM
Protocol: To determine if organ signal attenuation was occurring because ^64Cu was released from pTrMA-co-DOTA in vivo due to insufficiently strong DOTA chelation, the stability of the radiolabeled polymer as well as the biodistribution and excretion of free ^64Cu was investigated by further μPET/μCT imaging. Mice (female, n = 4) were i.v. injected with the fresh ^64Cu-labeled pTrMA-co-DOTA (200 μCi), ^64Cu-pTrMA-co-DOTA after incubating in plasma at 37 °C for 24 h (100 μCi), and free ^64CuCl2 (100 μCi). […] If ^64Cu was readily leached from the DOTA group when incubated in plasma, the shifting biodistribution in the organs with time would have been the same as with the mice exposed to free ^64CuCl2. […]
Figure 6 Time course biodistribution and excretion of fresh ^64Cu-labeled pTrMA-co-DOTA (blue), plasma-incubated ^64Cu-labeled pTrMA-co-DOTA (red), and free ^64CuCl2 (green) from the organs (a) brain, (b) heart, (c) liver, (d) left kidney, (e) right kidney, (f) bladder, (g) muscle, (h) left lung, (i) right lung, (j) spleen, and (k) intestine of female (n = 4) mice. […] Data were quantified from μPET images.
^64Cu-radiolabeled pTrMA-co-DOTA was incubated in plasma collected from a female C57BL/6 mouse at 37 °C for 24 h. […] Co-registered μPET/μCT images were analyzed, and MIPs were generated using AMIDE software.

[2] = C57HL/6 mice, 72 h; cited from earlier work
Description: In the final time points of the extended μPET/μCT experiment, the signal in the liver still appeared to be going down, while the study co ...

[3] = Differential scanning calorimetry, melting temperature of insulin; assay type: physicochemical; conditions: DSC; insulin 10 mg/mL in 10 mM HCl; pTrMA 5 mol equiv or trehalose 50 mg/mL
Description: In addition, differential scanning calorimetry was undertaken to study the melting temperature of the insulin. […] Thus, it is unlikely that the change in melting temperature is a significant factor in protein stabilization.

[4] = Accelerated heating assay of insulin (90 °C, 30 min), HPLC and PAGE; assay type: physicochemical; conditions: DPBS pH 7.4, insulin 1 mg/mL final, pTrMA 28.1 kDa 2 mol equiv, 0.22 μm filtered, RP-HPLC, n = 3
Protocol: The formulations were heated to 90 °C for 30 min. […] The heated samples were also investigated by native polyacrylate gel electrophoresis (PAGE) for changes to MW or isoelectric point for evidence of chemical changes or aggregate formation (Figure 8b).
For all *p < 0.05, **p < 0.01, and ***p < 0.001.
(§1) The samples were stored at 4 °C or heated to 90 °C for 30 min in ambient light. Aliquots of each insulin sample were used directly for SDS and native PAGE as well as ThT assay. […] ThT was prepared at 50 μM (0.0159 mg/mL) in 20 mM DPBS pH 7.4. Into a black 96-well plate, 50 μL of each sample was pipetted. To these was added 250 μL of ThT solution, and the plate was incubated at room temperature (21 °C) for 20 min. Fluorescence intensity was measured on a Tecan M1000 plate reader (λex = 450 nm, λem = 482 nm).

[5] = Thioflavin T (ThT) fibrillation assay; assay type: physicochemical; conditions: 90 °C, 30 min; ThT 50 μM, 20 min at 21 °C; λex 450 nm, λem 482 nm; n = 3
Protocol: as §1, with “In addition, differential scanning calorimetry was undertaken to study the melting temperature of the insulin. […] Thus, it is unlikely that the change in melting temperature is a significant factor in protein stabilization. […] The” for “The”

[6] = SEC-MALS oligomerization state of insulin; assay type: physicochemical; conditions: insulin 30 mg/mL, 0.1 M PBS pH 7.4; pTrMA 26.0 kDa 30 mg/mL; fresh or heated 90 °C 30 min
[7] = Long-term insulin stability at 4 °C, RP-HPLC; assay type: physicochemical
Protocol: To study relevant storage, the formulations were kept at a standard refrigeration temperature at 4 °C for 46 weeks.
The samples were stored at 4 °C for […], followed by regular sampling.

[8] = test system: IgG and IgM antibodies specific to OVA or pTrMA; test: Antibody immunogenicity study, IgG and IgM immune ELISA of serum; assay type: in vivo; conditions: female CD-1 mice, n = 5–6; i.p. at weeks 0 and 2; OVA 2 mg/kg, pTrMA 10 wt %; serum weeks 1-3; ELISA vs naïve serum
Protocol: To study the adaptive immune response in the form of antibody production, mice were challenged at weeks 0 and 2 with the model immunogenic protein ovalbumin (OVA, 2 mg/kg) as a positive control, pTrMA (10 wt % or 100 mg/mL), or both OVA + pTrMA (2 mg/kg OVA, 10 wt % pTrMA) via intraperitoneal (i.p.) injection. Serum was collected each week, and the immunoglobulin IgG and IgM antibodies specific to OVA or pTrMA were measured by ELISA. For ELISA, OVA or bovine serum albumin (BSA) conjugated with pTrMA (Figure S1) was adsorbed for 16–18 h on microplate wells to capture any antibodies in the serum. Serum from challenged mice and naïve mice as a negative control was measured for antibodies against the challenge antigen, OVA, or the BSA–pTrMA conjugate. Serum from the mice treated with OVA and pTrMA was tested against both OVA and the BSA–pTrMA conjugate. Testing against both antigens measured if the polymer increases the immunogenicity of OVA and, conversely, if the presence of an immunogenic protein, OVA, elicited an immunogenic response to the polymer (Figure S2).
Figure 2 Antibody levels in mice specific to OVA or pTrMA (BSA–pTrMA conjugate) antigens over 3 weeks after i.p. injection of OVA (2 mg/kg), OVA + pTrMA (2 mg/kg, 10 wt %), or pTrMA (10 wt %) at weeks 0 and 2 (n = 5–6). […]

total signal remaining at the 24 h time point [1]: 56.3 ± 19.7%
Molecule: [64Cu+2].[Cl-].[Cl-] [^64CuCl2]
accumulation in the kidneys [2]: 10 % ID/cc
accumulation in the liver [2]: 13 % ID/cc

melting temperature of insulin (alone or with the named additive) [3]: 88.8 °C
Molecule: OC[C@H]1O[C@H](O[C@H]2O[C@H](CO)[C@@H](O)[C@H](O)[C@H]2O)[C@H](O)[C@@H](O)[C@@H]1O [trehalose]

Molecule: insulin: Recombinant human insulin purchased from Sigma-Aldrich
degradation (deamidation at AsnB3) after heating, HPLC [4]: very little intact insulin remaining
ThT fluorescence signal [5]: significantly higher (p < 0.01) fluorescence signal than fresh insulin
oligomerization state by SEC-MALS [6]: no hexameric insulin was present
melting temperature of insulin (alone or with the named additive) [3]: 86.6 °C
intact insulin, % of the original level, after 20 weeks ([7]; DPBS pH 7.4, insulin 1 mg/mL final, pTrMA 10.1 kDa 2 mol equiv, 0.22 μm filtered, RP-HPLC, n = 3, mean ± SEM): 67.4 ± 7.0%
appearance of solution (aggregation) during weeks 20-46 ([7]; DPBS pH 7.4, visual): visually cloudy

B1: OVA: model immunogenic protein ovalbumin, positive control (protein, UniProt P01012 2-386, looked up)
Ovalbumin: GSIGAASMEFCFDVFKELKVHHANENIFYCPIAIMSALAMVYLGAKDSTRTQINKVVRFDKLPGFGDSIEAQCGTSVNVHSSLRDILNQITKPNDVYSFSLASRLYAEERYPILPEYLQCVKELYRGGLEPINFQTAADQARELINSWVESQTNGIIRNVLQPSSVDSQTAMVLVNAIVFKGLWEKAFKDEDTQAMPFRVTEQESKPVQMMYQIGLFRVASMASEKMKILELPFASGTMSMLVLLPDEVSGLEQLESIINFEKLTEWTSSNVMEERKIKVYLPRMKMEEKYNLTSVLMAMGITDVFSSSANLSGISSAESLKISQAVHAAHAEINEAGREVVGSAEAGVDAASVSEEFRADHPFLFCIKHIATNAVLFFGRCVSP
OVA-specific IgG response [8]: increased in both weeks 2 and 3
OVA-specific IgM response [8]: only elevated in the first week

From paper PMC9412841 (ACS Applied Materials & Interfaces, 2022)
